From patent publication US20240336680A1 come the findings set out here.

Test [1] has as its target human CLDN18.2 (isoform 2 of claudin-18), full length, expressed on CHO cells (human) (UniProt P56856). Put plainly: FACS titration on CHO/CLDN18.2 cells, 0.00001 to 100 ug/mL.
Test [2] has the same target. Put plainly: FACS, serial dilutions on CHO cells expressing human CLDN18.2.

Where a chain is given by its changes, count along the chain named.

B1: HuT252S4 H3/L1 (antibody, V domains shown)
VH: EVQLVQSGAEVKKPGESLKISCKGSGYSFTGYNMNWVRQMPGKNLEWIGLINPYNGGTRYNQKFKGKATLSVDKSISTAYLQWSSLKASDTAMYFCARMGLGNAMDYWGQGTTVTVSS
VL: DIVMTQSPDSLAVSLGERATINCKSSQNLLNSGNQKNYLTWYQQKPGQPPKLLIYWASTMESGVPDRFSGSGSGTDFTLTISSLQAEDVAVYYCQNDYIYPLPFGQGTKLEIK
In the case of B1, the EC50 (read off the curve) in test [1] was found to be 1 µg/mL.

B2: HuT252S4 H3/L2 (antibody, V domains shown)
VH: B1 VH
VL: B1 VL with N31Q, M60R
In the case of B2, the EC50 (read off the curve) in test [1] turned out to be 1 µg/mL.

B3: Chimeric T252S4 H/L (antibody, human IgG1, V domains shown)
VH: EVQLQQSGPELVKPGASMKISCKASGYSFTGYNMNWVKQTHGKNLEWIGLINPYNGGTRYNQKFKGKATLTVDKSSSTAYMELLSLTSEDSAVYFCARMGLGNAMDYWGQGTSVTVSS
VL: DIVMTQSPSSLTVTAGEKVTMSCKSSQNLLNSGNQKNYLTWYQQKPGQPPKLLIYWASTMESGVPDRFTGSGSGTDFTLTISSVQAEDLAVYYCQNDYIYPLPFGAGTKLELK
In the case of B3, the EC50 in test [2] was 1 µg/mL.

As usually defined, the EC50 (read off the curve) is the concentration needed to bring the measured effect to its halfway point. High values mean lower potency in that assay, low ones higher potency in that assay. A word on the EC50: it is the midpoint of the concentration-response curve.
